system: K4 kissing-loop RNA reporter; assay: apparent KD of K4 kissing-loop reporter; higher = weaker reporter binding; conditions: Eterna round: R107; input ligand: theophylline 20 uM
Procedure: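 RNA-MaP round R107: designed RNA switches with theophylline, tryptophan, arginine or FMN aptamers are transcribed on-chip within common flanks. They are titrated with a labelled K4 kissing-loop RNA reporter in RNA-MaP buffer (100 mM Tris pH 7.5, 80 mM KCl, 4 mM MgCl2), without ligand or with the indicated ligand. Median apparent KD per design.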
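Also: bound reporter read as fluorescence of individual clusters on recovered sequencing chips by microscopy, with normalized cluster intensities fitted with a binding model.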

Sequence | apparent KD of K4 kissing-loop reporter [nM]
CGCCAGUGAUGUUGGCGCAGCUACCGGGAAGGAGCGCCGUAGUCGGCAGGUAGGUCGCCCGGGCAGUGAUGUUGCCUCAUACCGU [Exclusion Arginine A GF 21] | 347
AAGGAUCAGAGAGUGAUGUUCUCUAAUAAACGAGGACCGGUACGGCCGCCACUCGAAUAAGAUCCAGUCCUACGAAAAGUAGGAC [Omei inspired 6] | 613
AAAUAUAGUGAUGUUAUAUAUAUAUGUGAUACCAGAGAAAAGAAACUCCCUUGGCAGCACGAGAGAGAAUUUUUUUUUUAUAUAU [AstrosSSTheA#2] | 471
AAUCCUUACGGAGUGAUGUUCCGUAGCGAUACCAGCCAUUGCGAUGGCCCUUGGCAGCGCUAUAAGCAUUGCUAUUAAGGGCCAA [Theo A Ex t7a] | 121
GGGAGUAGUGCGGCCGCCACUGAGAAAGAAGAAGAAUAUAGUGAUGUUAUAUAGGAAAUAAAGAAUAGGACCGGGCAUUAGAUUU [SSTRyptB.M] | 181
GCUACCUAGGCAGGAUAUCGUAUUGAGUGAUGUUCAAUAACGGUCUACCAAAGGUAGACCGACCUUCGAGAAGGGCCUAGGUAGC | 174
AAUUAAUGUAUAGAUUAUAUACAUUAAUCAGAGGAUAUGCAUUAUUGCAGAAGGCUGAAUGCAGUGAUGUUGCAAUAAUAAUUUA [JR_SSFMNA_Sub003] | 313
CAGAUAACCUAGGAUACCAGCGUCGCUGACAGGUCGCUGGAGAAGUACAGUGAUGUUGUGCGCCCUUGGCAGCCUGUUUACACAG [theeternabot_exclusion_KL_Theo_B_32] | 207
GUGCGGCUAGUGAUGUUGGUUGCGUGGGAAGGAGCGCAGAAACAUGCAGGUAGGUCGCCCACAUCUCGGAUAAGAGACUAAUUCA [Letiisve] | 220
GUGGAAAUCAGAAGGAGCGUCUACAAUAAGAAAACCAGUGAUGUUGGUUUUAUUUAAUGAAGACAGGUAGGUCGCUGAAUUUCUA [Same State Arginie B GF 20] | 105
AAGCAGUCACUCGAAUCCAUCGAAGAUGGGCGAGGACCGGUACGGCCGCCACUCGGAGUGAUGUUCCGAAGACUGCAAAAUAAAA | 786

same assay, conditions: Eterna round: R107; input ligand: tryptophan 2.4 mM

Sequence | apparent KD of K4 kissing-loop reporter [nM]
AUUUAUUCGAGUGAUGUUCGUGUUUUUUCAGAGGAUAUGCGUAAUAGCAGAAGGCUGUUUUAUAUUAUAUUUUGAUUUUUUUAAA [JR_Nu_ExcFMNA_Sub025] | 73.5
AUAAUCUUGCAGUGAUGUUGCAAGAAAGCUCAGGAUAUCAGGAAACUGAGAAGGGAGCAUCCUGAGCACUUGCAACAGUGCUCAG [[K1]-[K2]-[F1]-[F2]-[F]'-[K]'-[F]''_Design3] | 117
UUUAUAAAGUCGGCCGCCACUGGUUUUAUUUUUGUUUAAUCUGGAUCAUAGUGAUGUUAUGAGACCAGGACCGGGACAUUUGUUA [#08 K4 Tryptophan B Exclusion] | 132
UAUAUAGUGACGGCCGCCACUAUUGUGAUGUAGUUGUUAGAGUGAUGUUUUGUUGUUUGAUUUUGUAGGACCGGGUUAUAUGUUA [rccrwzmullin] | 668
CCCAGUGAUGUUGGGAGUAGCCACAGGGAAGGAGCGUGCUAGAGCACAGGUAGGUCGCCCACUGGGUCAGUGAUGUUGGUCGGGU [Same State Arginine A GF 28] | 208
CUUGGUCCACGAAGGAGCGCCGUGCAGUGAUGUUGCAGUCAGAUCGAGUGAUGUUUCGGGCGGCAGGUAGGUCGCGUGGCCCUUU [Excusion Arginine B GF 25] | 464
CUUGAAAUGACUGAUACCAGUGAAAAUCUAUGUAGUGAUGUUAUAUACUAAUUUAAUAAGCGCCCUUGGCAGCAGUAUGAAUUAU [AstrosExc-theB#18] | 445
UUUUACGAUACGGCCGCCACUGGUGUUAUAUAUUUGCAGGAGUGAUGUUCGUGCGAUCAUUCCAUCAGGACCGGGUAUACGCGGC [theeternabot_sameState_KL_Trp_B_43] | 507
CGAGUGAUGUUCGUUCGUAUAUUUGGGUGACAGGAUAUGCGGAAACGCAGAAGGGUCACCUUCGGGUUACCCGAAUUGGCGUUAU [Model 1] | 298
AGACCACAAAGUGGUCAGUGUUCGCAGCAGCGAGGACCGGUACGGCCGCCACUCGCGAGUGAUGUUCGCGAGAGCUGCGAACACA [Omei KL Tryp A Exc A v7] | 109
AAUAUACAUUAAUUAAUUAAAGGUUCAGAAGGAGCGUGAAUUAACACAGGUAGGUCGCUGAGCGAGUGAUGUUCGCUAUAUACUA [JR_ExcArginiA_Sub004] | 58.1
GGCCCGGGCGCGGCCGCCACUCCCUCGUACCGCAAGGUAUGAUACCGAGUGAUGUUCGGUUGGAGGAGGACCGGGCGCCCGGGCC [#2 Exclusion - Tryptophan B Attempt #5 (HarryS)] | 91.1
UAAGAACAGUCGGCCGCCACUUGAACUACAGAAGUAGGUAUAGCACCGUGAGUGAUGUUCACUGAAAGGACCGGGACUUGCUCCG [theeternabot_sameState_KL_Trp_B_30] | 574
GGAUAGGACAUAGGAUAUGGUAGUGAUGUUACCAAACUGGUUAAACAUGUCAGAAAACUGGCAUGACCAGAAGGGUGUCCUAUCG [FmnBX 27 U11+G75] | 64.3
AGUGCAUGCUCGGCCGCCACUCAGAAGAAGAUAGAAGUGAUGUUUCUAAUGAUGAGAAUAAUAAAGAGGACCGGGAGAUGUGCAA [First try] | 116
AGGGUAAGGCGUUAACAUGACACCUGGGAAGGAGCGCAGUACACUGCAGGUAGGUCGCCCAGUGAUGUUGGGCGUAUGUAUUAGU [Legexeso] | 119
AGAAACUUGUAUGUCGGCCCUGCGCGCGAUACCAGCCAAAUGGAUGGCCCUUGGCAGCGCAGCGAGUGAUGUUCGCCCGGCUGAC [Exclusion Theophylline A GF 21] | 65.7
UAAAUAAUUCAAGGAUAUGUUUUCUAUUUCGAGUGAUGUUCGGUCUUAAUAAAUUUAAUAGAUUAUACAGAAGGUGAUGGAUAGU [Astrostest] | 99.8
GAACGGCUGGCGGCCGCCACUGGUAUACGAGUGAUGUUCGGAUACACAUAGAAUAAGGUGAUUGACAGGACCGGGUCAGAGCCGG [#15 K4 Tryptophan B Same State] | 180
UGUCAUUGGUCGGCCGCCACUUCAGGUCAAAGACCAGAGUGAUGUUCUUGCACAAAGUGCUUAAGAAGGACCGGGACCGAUGACU [TrypBS 14 #SwitchBubble #K4Middle] | 1060
UGACUACAGGAAUAAUAAUCUUAGUGAUGUUAGGAUAUGCUGAUAAGCAGAAGGAACUGAGAUCGAAAGAUCUCAAAAGUAGUCU [#05 K4 FMN A Exclusion] | 199

Sequence | apparent KD of K4 kissing-loop reporter [nM]
GGAUAGGACAGAGGAUAUGGAGCUAGGCAAGAAUAACUUGUCUAGCAAUCCAUGAGGAGUGAUGUUCCAGAAGGCUGUCCUAUCG [FmnBX 2 - #SwitchBubble #StraticStem #DoubleMagnetSystem] | 116
UAGGAUUUUUCGGCCGCCACUCUAGAUUCUGUGUAUUAUCUACGACUUGAAGUGAUGUUUCAGGAGAGGACCGGGAAGAUAUAAC [theeternabot_exclusion_KL_Trp_B_27] | 225
AAUAUAUUGUGAAGGAGCGCGAAAAGCAGUGAUGUUGCUUACUUACAAUUUAUUUUUUACACGCAGGUAGGUCGCACAAUAUAUA [JR_SSArginiB_Sub015] | 220
GGGUGUAGUGCGGCCGCCACUGUGAAAGUAGAAGAAUAUAGUGAUGUUAUAUAGGAUUAAAAGAAUAGGACCGGGCAUUAGACUU [#23 K4 Tryptophan B Same State] | 182
UGUCAUUGGUCUGAUACCAGAUGAUAAUCUGGAGUGAUGUUCCAAGAACGACAAAGUCGCAUCCCUUGGCAGCAGACCGAUGACU [TheoBS 18 #SwitchBubble 13 #StaticStem] | 238
CCAUUCUUUUACGAUACCAGUUUAAUUUAUUUAUUCAUAACCCUUGCCGAGUGAUGUUCGGACCCUUGGCAGCGUUUGCGAGAGG [vvuvmullin] | 358
CCGAGUAGCUCCGAUACCAGCACAAUCGUUCAAUGAUCCAUGCGCAAGUGAUGUUUGCGUUGCCCUUGGCAGCGGGCAAAAGCUU [theeternabot_sameState_KL_Theo_B_2] | 78.6
UUUGUGAGUGAUGUUUGCAAUACGUUACCGAAGGAUAUUGUUGCGCCAAGAAGGUCGGAUGGAUCCAUGGGACAUGCCCUGGAGA [theeternabot_sameState_KL_FMN_A_45] | 474
UUAGAUCAAAGAUCAGUCUUAUCAAGAGCACGAGGACCGGUACGGCCGCCACUCGAGUGAUGUUCGAGAGCUCUUGUGACAAAUU [AK2 EXC Tryptophan A] | 219
UAAAUAAUAAAACGAGUGAUGUUCGACGAUACCAGCCUCGAUAGAGGCCCUUGGCAGCGUAAAUGAUCACAAAGCCAAGGAAUAA [#OpenEnded 1] | 134
CGCCAGUGAUGUUGGCGCAGCUACCGGGAAGGAGCGCCGUAGUCGGCAGGUAGGUCGCCCGGGCAGUGAUGUUGCCUCAUACCGU [Exclusion Arginine A GF 21] | 236
AAGGAUCAGAGAGUGAUGUUCUCUAAUAAACGAGGACCGGUACGGCCGCCACUCGAAUAAGAUCCAGUCCUACGAAAAGUAGGAC [Omei inspired 6] | 132
AAAUAUAGUGAUGUUAUAUAUAUAUGUGAUACCAGAGAAAAGAAACUCCCUUGGCAGCACGAGAGAGAAUUUUUUUUUUAUAUAU [AstrosSSTheA#2] | 328
AAUCCUUACGGAGUGAUGUUCCGUAGCGAUACCAGCCAUUGCGAUGGCCCUUGGCAGCGCUAUAAGCAUUGCUAUUAAGGGCCAA [Theo A Ex t7a] | 126
GGGAGUAGUGCGGCCGCCACUGAGAAAGAAGAAGAAUAUAGUGAUGUUAUAUAGGAAAUAAAGAAUAGGACCGGGCAUUAGAUUU [SSTRyptB.M] | 211
GCUACCUAGGCAGGAUAUCGUAUUGAGUGAUGUUCAAUAACGGUCUACCAAAGGUAGACCGACCUUCGAGAAGGGCCUAGGUAGC | 166
AAUUAAUGUAUAGAUUAUAUACAUUAAUCAGAGGAUAUGCAUUAUUGCAGAAGGCUGAAUGCAGUGAUGUUGCAAUAAUAAUUUA [JR_SSFMNA_Sub003] | 151
CAGAUAACCUAGGAUACCAGCGUCGCUGACAGGUCGCUGGAGAAGUACAGUGAUGUUGUGCGCCCUUGGCAGCCUGUUUACACAG [theeternabot_exclusion_KL_Theo_B_32] | 198
GUGCGGCUAGUGAUGUUGGUUGCGUGGGAAGGAGCGCAGAAACAUGCAGGUAGGUCGCCCACAUCUCGGAUAAGAGACUAAUUCA [Letiisve] | 307
GUGGAAAUCAGAAGGAGCGUCUACAAUAAGAAAACCAGUGAUGUUGGUUUUAUUUAAUGAAGACAGGUAGGUCGCUGAAUUUCUA [Same State Arginie B GF 20] | 118
AAGCAGUCACUCGAAUCCAUCGAAGAUGGGCGAGGACCGGUACGGCCGCCACUCGGAGUGAUGUUCCGAAGACUGCAAAAUAAAA | 378

From the supplement of paper PMC9170038
